Tests used:
[1] = molecular target: C-terminal 6×His-tagged hCXCR5 whole receptor protein (human) (UniProt P32302); experiment: SPR (Biacore), whole receptor captured and crosslinked on NTA chip at 300 RU, analyte injected; mean of triplicate
[2] = molecular target: biotinylated N-terminal hCXCR5 peptide (human); experiment: SPR (Biacore), reversed format, biotinylated peptide on SA chip at 100 RU; mean
[3] = molecular target: C-terminal 6×His-tagged hCXCR5 whole receptor protein (human) (UniProt P32302); experiment: SPR (Biacore), whole receptor captured and crosslinked on NTA chip at 700 RU, analyte injected; mean of triplicate
[4] = molecular target: hCXCR5 N-terminal peptide (human); experiment: SPR (Biacore), conventional format: mAb captured by anti-mouse antibody on CM5 chip, peptide injected; mean
[5] = molecular target: biotinylated N-terminal hCXCR5 peptide (human); experiment: SPR (Biacore), reversed format: biotinylated peptide on SA chip, mAb injected; mean
[6] = molecular target: biotinylated N-terminal hCXCR5 peptide (human); experiment: SPR (Biacore), reversed format, biotinylated peptide on SA chip at 5 RU; mean
[7] = molecular target: biotinylated N-terminal hCXCR5 peptide (human); experiment: SPR (Biacore), reversed format, biotinylated peptide on SA chip at 20 RU; mean
[8] = molecular target: CD52 displayed on virus-like particles (CD52 VLP) (UniProt P31358); experiment: SPR (Biacore), CD52 VLP captured by Campath and crosslinked on C1 chip, mAb injected
[9] = molecular target: CD52 displayed on virus-like particles (CD52 VLP) (UniProt P31358); experiment: SPR (Biacore), CD52 VLP captured by Campath and crosslinked on C1 chip, mAb injected; second curve
[10] = molecular target: T1, C-terminal 6×His-tagged hCXCR5 whole receptor protein (human, UniProt P32302 1-372, crosslinked on the chip with NHS/EDC after capture); experiment: SPR (Biacore), whole receptor captured and crosslinked on NTA chip at 700 RU, analyte injected; mean of triplicate
T1 construct: mature; Purified whole receptor (monomers, dimers and trimers on SDS-PAGE), captured on a Ni-NTA chip and stabilized by limited crosslinking; also called human CXCR5 receptor; 6×His-hCXCR5
T1 sequence: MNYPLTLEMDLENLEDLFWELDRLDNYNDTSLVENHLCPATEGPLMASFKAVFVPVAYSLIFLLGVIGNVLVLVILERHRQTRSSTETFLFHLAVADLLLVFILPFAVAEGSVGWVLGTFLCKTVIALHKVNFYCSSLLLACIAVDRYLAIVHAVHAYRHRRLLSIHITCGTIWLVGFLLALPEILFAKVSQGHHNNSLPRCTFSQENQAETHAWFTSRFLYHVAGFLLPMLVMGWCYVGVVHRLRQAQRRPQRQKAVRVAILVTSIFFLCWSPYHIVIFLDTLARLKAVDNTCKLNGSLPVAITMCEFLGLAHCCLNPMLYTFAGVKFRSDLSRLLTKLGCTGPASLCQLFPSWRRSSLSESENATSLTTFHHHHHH

[11] = molecular target: T1, C-terminal 6×His-tagged hCXCR5 whole …; experiment: SPR (Biacore), whole receptor captured and crosslinked on NTA chip at 300 RU, analyte injected; mean of triplicate
Procedure: For direct capturing by an NTA SPR sensor chip, the purified 6×His-hCXCR5 protein was diluted to 50 ug/ml with HBS—N (from GE) buffer. An NTA reagent kit (GE) was used for chip surface preparation. The flow rate was set to 5 ul/ml and HBS—N was used as the running buffer. […] In order to stabilize native-like structure of the receptor captured on the chip surface, the commonly used amine coupling reagent NHS/EDC was tested at different concentrations as shown in FIGS. 11 and 12.
In order to assess the impact of the avidity effect on this capture and stabilization method, chip surfaces with different receptor densities were prepared.

[12] = molecular target: biotinylated N-terminal hCXCR5 peptide (human); experiment: SPR (Biacore), reversed format: biotinylated peptide on SA chip; the reference of the comparison is not named (by Table 2, the other two clones)
[13] = molecular target: biotinylated N-terminal hCXCR5 peptide (human); experiment: SPR (Biacore), reversed format, biotinylated peptide on SA chip at 100 RU; mean; called artificial, outside the Biacore accuracy limit
[14] = molecular target: biotinylated N-terminal hCXCR5 peptide (human); experiment: SPR (Biacore), reversed format, biotinylated peptide on SA chip at 100 RU; mean; affected by avidity and artificial Koff

What does the source list for mouse anti-hCXCR5 mAb MAB190 (antibody)?
Kd [1]: 610 pM; koff [1]: 0.000423 s⁻¹; kon [1]: 694000 M⁻¹ s⁻¹; Kd [2]: 39.4 pM; koff [2]: 0.000256 s⁻¹; kon [2]: 6.5e+06 M⁻¹ s⁻¹; Kd [3]: 256 pM; koff [3]: 0.000307 s⁻¹; kon [3]: 1.2e+06 M⁻¹ s⁻¹; Kd [4]: 656 pM; koff [4]: 0.00027 s⁻¹; kon [4]: 408000 M⁻¹ s⁻¹; Kd [5]: 141 pM; koff [5]: 0.000595 s⁻¹; kon [5]: 4.23e+06 M⁻¹ s⁻¹; Kd [6]: 164 pM; koff [6]: 0.000711 s⁻¹; kon [6]: 4.33e+06 M⁻¹ s⁻¹; Kd [7]: 66.8 pM; koff [7]: 0.000511 s⁻¹; kon [7]: 7.65e+06 M⁻¹ s⁻¹

With anti-CD52 mAb (Campath) (antibody) as the molecule, how does the Kd [8] read?
The Kd was 5750 pM.

What about the koff [8] of the same molecule?
The koff was 0.00109 s⁻¹.

And the kon [8]?
The kon was 189000 M⁻¹ s⁻¹.

What about the Kd [9] of the same molecule?
Its Kd is 5810 pM.

What about the koff [9] of the same molecule?
Its koff is 0.000937 s⁻¹.

What about the kon [9] of the same molecule?
The kon was 161000 M⁻¹ s⁻¹.

B1: CXCL13 (ligand, UniProt O43927 23-109, looked up)
chain: VLEVYYTSLRCRCVQESSVFIPRRFIDRIQILPRGNGCPRKEIIVWKKNKSIVCVDPQAEWIQRMMEVLRKRSSSTLPVPVFKRKIP
notes: also called hCXCR5 ligand
Which results are given for B1?
Kd [10]: 891 pM; koff [10]: 0.00553 s⁻¹; kon [10]: 6.25e+06 M⁻¹ s⁻¹; Kd [11]: 1370 pM; koff [11]: 0.00718 s⁻¹; kon [11]: 5.26e+06 M⁻¹ s⁻¹

B2: mouse anti-hCXCR5 mAb clone 16D7 (antibody, V domains shown)
VH: QVQLKESGPGLVAPSQSLSITCTVSGFSLIDYGVNWIRQPPGKGLEWLGVIWGDGTTYYNSALKSRLSIRKDNSQSQVFLKMNSLQTDDTAMYYCARIVYWGQGTLVTVSA
VL: DIVMTQAAPSVAVTPRESVSISCRSSKSLLHSSGKTYLYWFLQRPGQSPQLLIYRMSNLASGVPDRFSGSGSGTAFTLRISRVEAEDVGVYYCMQHLEYPYTFGGGTKLEIK
B2 was tested. Which Kd [10] did it give?
The Kd was 39.6 pM.

And the koff [10]?
The koff was 1.28e-05 s⁻¹.

And the kon [10]?
The kon was 318000 M⁻¹ s⁻¹.

What about the kon [2] of the same molecule?
Its kon is 1.01e+06 M⁻¹ s⁻¹.

And the fold slower off-rate [12]?
The fold slower off-rate was > 10 fold.

What about the Kd [11] of the same molecule?
Its Kd is 39.9 pM.

And the koff [11]?
The koff was 9.62e-06 s⁻¹.

And the kon [11]?
The kon was 240000 M⁻¹ s⁻¹.

And the koff [13]?
Its koff is 9.85e-08 s⁻¹.

And the Kd [4]?
Its Kd is 503 pM.

And the koff [4]?
The koff was 0.000241 s⁻¹.

And the kon [4]?
The kon was 480000 M⁻¹ s⁻¹.

What about the Kd [5] of the same molecule?
Its Kd is 65 pM.

And the koff [5]?
The koff was 4.59e-05 s⁻¹.

And the kon [5]?
Its kon is 708000 M⁻¹ s⁻¹.

And the Kd [14]?
Its Kd is 0.0974 pM.

What about the Kd [6] of the same molecule?
The Kd was 70.2 pM.

And the koff [6]?
Its koff is 4.71e-05 s⁻¹.

And the kon [6]?
The kon was 681000 M⁻¹ s⁻¹.

And the Kd [7]?
Its Kd is 32.5 pM.

What about the koff [7] of the same molecule?
The koff was 2.7e-05 s⁻¹.

And the kon [7]?
The kon was 832000 M⁻¹ s⁻¹.
